The values below come from publication PMC4851077.

Assay [1] has as its target concanavalin A extracted from Jack beans (Con A, type V, MW ≈ 104,000) (Jack bean). In words: quartz crystal microbalance (QCM); layer-by-layer adsorption on Au/MPS/PDDA-coated quartz resonator; alternate immersion in Con A (1 mg/mL, pH 7.0) and GOD (1 mg/mL, pH 7.0) for 20 min each, 0.1 M Tris-HCl with 0.1 M NaCl, 1 mM MnCl2, 1 mM CaCl2; washed, dried, frequency measured in air.

Assay [2] addresses glucose oxidase (GOD, E.C. 1.1.3.4, type VII, MW ≈ 160,000) (UniProt P13006). The assay is described as above.

The substance “glucose oxidase (GOD, E.C. 1.1.3.4, type VII, MW ≈ 160,000) (from UniProt P13006 17-605) (enzyme)” came in with an average QCM frequency decrease for each layer in assay [1] of 58 Hz.
The substance “concanavalin A extracted from Jack beans (Con A, type V, MW ≈ 104,000) (natural protein)” came in with an average QCM frequency decrease for each layer in assay [2] of 82 Hz.
